In publication PMC11869522, “Competitive displacement of lipoprotein lipase from heparan sulfate is orchestrated by a disordered acidic cluster in GPIHBP1” (Journal of Lipid Research, 2025):
Where no end group is shown, it is not given here. The star is where a group is joined. sulfate = O=S(=O)(O)*

T1: Human LPL (lipoprotein lipase) (human, UniProt P06858 28-475, R324A)
T1 sequence (looked up): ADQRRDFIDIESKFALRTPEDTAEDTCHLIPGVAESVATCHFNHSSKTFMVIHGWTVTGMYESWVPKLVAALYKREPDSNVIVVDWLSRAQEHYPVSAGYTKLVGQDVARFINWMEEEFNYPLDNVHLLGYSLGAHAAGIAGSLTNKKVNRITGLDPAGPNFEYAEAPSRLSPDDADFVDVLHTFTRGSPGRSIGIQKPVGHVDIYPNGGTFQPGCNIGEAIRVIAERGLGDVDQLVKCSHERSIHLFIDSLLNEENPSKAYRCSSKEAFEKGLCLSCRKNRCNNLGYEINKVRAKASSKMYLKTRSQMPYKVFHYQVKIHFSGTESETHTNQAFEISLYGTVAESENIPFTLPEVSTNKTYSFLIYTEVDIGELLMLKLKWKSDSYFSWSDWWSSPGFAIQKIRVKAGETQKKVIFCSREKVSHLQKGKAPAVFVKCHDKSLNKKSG

T2: Bovine LPL (bovine, UniProt P11151 29-478)
T2 construct: also called bLPL; source: purified from fresh bovine milk
T2 sequence (looked up): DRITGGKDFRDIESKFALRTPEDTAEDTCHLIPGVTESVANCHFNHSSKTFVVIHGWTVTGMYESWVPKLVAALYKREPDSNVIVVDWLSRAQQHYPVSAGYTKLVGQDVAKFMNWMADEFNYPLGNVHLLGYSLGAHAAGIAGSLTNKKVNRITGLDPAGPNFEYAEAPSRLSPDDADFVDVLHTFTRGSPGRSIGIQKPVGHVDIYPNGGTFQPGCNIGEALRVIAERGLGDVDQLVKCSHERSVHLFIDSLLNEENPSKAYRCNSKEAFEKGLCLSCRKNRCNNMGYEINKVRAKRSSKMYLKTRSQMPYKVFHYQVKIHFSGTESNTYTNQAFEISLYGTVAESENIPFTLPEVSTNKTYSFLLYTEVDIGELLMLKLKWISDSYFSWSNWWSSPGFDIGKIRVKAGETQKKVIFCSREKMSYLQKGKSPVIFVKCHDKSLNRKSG

B1: GPIHBP1^1–131/R38G (domain or fragment, human, UniProt Q8IV16 21-151, looked up)
chain: QTQQEEEEEDEDHGPDDYDEEDEDEVEEEETNRLPGGGSRVLLRCYTCKSLPRDERCNLTQNCSHGQTCTTLIAHGNTESGLLTTHSTWCTDSCQPITKTVEGTQVTMTCCQSSLCNVPPWQSSRVQDPTG
modifications: sulfated Tyr18; one bi-antennary N-linked glycosylation
B2: GPIHBP1^Cluster1-neutral (domain or fragment, human, UniProt Q8IV16 21-151, looked up)
chain: QTQQQQQQQNQNHGPNNYDEEDEDEVEEEETNRLPGGGSRVLLRCYTCKSLPRDERCNLTQNCSHGQTCTTLIAHGNTESGLLTTHSTWCTDSCQPITKTVEGTQVTMTCCQSSLCNVPPWQSSRVQDPTG
modifications: Tyr18 sulfation present in less than 40%; one bi-antennary N-linked glycosylation
notes: Construct from VectorBuilder Inc; source: Drosophila S2-cells, secreted, purified, D3 tag removed; not shown: uPAR domain III, N-terminal, cleaved
B3: GPIHBP1^Cluster2-neutral (domain or fragment, human, UniProt Q8IV16 21-151, looked up)
chain: QTQQEEEEEDEDHGPDDYNQQNQNQVQQQQTNRLPGGGSRVLLRCYTCKSLPRDERCNLTQNCSHGQTCTTLIAHGNTESGLLTTHSTWCTDSCQPITKTVEGTQVTMTCCQSSLCNVPPWQSSRVQDPTG
modifications: Tyr18 sulfation absent; one bi-antennary N-linked glycosylation
notes: as for B2

Experiments:
bLPL = assay: Lipase activity assay, protection against spontaneous LPL inactivation; assay type: biochemical, bovine; settings: 15 nM bLPL preincubated 20 min at 22°C with 1 μM synthetic peptide; Intralipid substrate, NEFA release 25 min; triplicates
Protocol: To determine lipase activity, 90 μl incubation mixture containing 166 mM NaCl, 28 U/ml heparin, 10% (w/v) fatty acid-free serum albumin, 250 mM Tris-HCl (pH 8.5), 0.16% intralipid, and 6% (v/v) chicken serum was mixed with 60 μl of sample buffer consisting of 150 mM NaCl, 0.1% (w/v) fatty acid-free serum albumin, 0.01% (v/v) Triton X-100, 10 mM HEPES (pH 7.4) and 15 nM bLPL. After 25 min incubation, non-esterified fatty acids (NEFA) released by LPL were quantified using the NEFA-HR kit according to manufacturer protocol (Wako Chemicals).
To address this question, we preincubated 15 nM purified bLPL for 20 min in the presence of 1 μM of synthetic peptides with different chain lengths and covering distinct regions of the first 33 residues in GPIHBP1 (supplemental Table S1). The residual bLPL activity was subsequently assessed by quantifying the release of non-esterified free fatty acids after a 25-min incubation with a lipid substrate emulsion (Intralipid) using the NEFA2-kit. […]
Fig. 2 LPL activity after incubation with synthetic peptides covering the acidic tail of GPIHBP^1–33 Purified bLPL (15 nM) was preincubated either alone or in the presence of 1 μM synthetic peptides or 150 nM GPIHBP1 for 20 min in 10 mM HEPES, 150 mM NaCl pH 7.4 at 22°C before LPL activity was assessed using Intralipid® as substrate. […]

[1] = test system: hLPL bound to immobilized heparan sulfate; assay: GPIHBP1-mediated extraction of LPL from HSPGs (SPR, immobilized heparin dp4 fragments); assay type: binding, human; settings: 12.5–200 nM GPIHBP1 proteins, 0.1–1.6 μM sulfated GPIHBP1^1–33, or GPIHBP1^34–131 with 1 μM sulfated GPIHBP1^1–33
Excerpt: To mimic electrostatic conditions found in the sub-endothelial spaces where surface-bound heparan-sulfate proteoglycans (HSPGs) are abundant, we designed a surrogate sensor surface using a streptavidin-coated CM5 sensor chip to capture high densities of biotinylated synthetic heparin dp4 fragments ([28], [29]). The reference surface was loaded with a neutral and non-sulfated fragment (M09 S00 from Iduron), while the active surface was loaded with a negatively charged fragment (M09 S08a from Iduron) containing N- and O-6-linked sulfations on each of the […] glucosamine residues in the DP4 fragment. Only the highly sulfated oligosaccharide bound LPL, and those interactions were transient with high off-rates. Despite the very transient nature of this binding, we created a stable reservoir of hLPL on the sensor surface by combining the fast kinetics of polyelectrolyte interactions with severe mass transport limitation—the latter phenomenon impedes LPL escape from the surface due to the fast rebinding that is favored by the high densities of immobilized heparin fragments (300 fmol/mm^2). For each experiment, 12.5 nM hLPL was loaded for 100 s at a flow rate of 20 μl/min in 10 mM Hepes (pH 7.4), 150 mM NaCl, 4 mM CaCl2, 10% (vol/vol) glycerol, 0.05% (vol/vol) surfactant P20, 1 mg/ml defatted BSA, […], and 0.05% (wt/vol) NaN3.
To compare the ability of GPIHBP1^1–131 and its charge variants to bind and extract hLPL from this dynamic reservoir, we injected twofold serial dilutions of 1.25–200 nM GPIHBP1^1–131; 1.25–200 nM GPIHBP1^Cluster1-neutral; GPIHBP1^Cluster2-neutral; 1.25–200 nM GPIHBP1^34–131; 0.1–1.6 μM GPIHBP1^1–33 with Tyr^18–SO4; or 1.25–200 nM GPIHBP1^34–131 in the presence of 1 μM sulfated GPIHBP1^1–33 for 250 s at 20 μl/min in 10 mM Hepes (pH 7.4), 150 mM NaCl, 4 mM CaCl2, 10% (vol/vol) glycerol, 0.05% (vol/vol) surfactant P20, 0.2 mg/ml fatty acid-free BSA, and 0.05% (wt/vol) NaN3. At the end of each cycle, two consecutive injections of 10 μl 3 M guanidinium chloride regenerated the chip.
GPIHBP1’s ability to displace LPL from its HSPG-bound state in the sub-endothelial spaces is essential for the trans-endothelial trafficking of LPL to the luminal surface of capillary cells ([29]). The importance of the acidic tail in this process is supported by solid evidence from surrogate in vitro models and in vivo studies in gene-edited mice ([28], [29]). It was therefore important to determine the relative impact of the two charge-clusters in GPIHBP1 on their ability to disrupt LPL•HSPG interactions. To gain this insight, we measured the ability of different GPIHBP1 charge variants to displace hLPL from a SPR sensor chip surface coupled with a high density of immobilized small heparin-like fragments ([28]). […]

[2] = target: T1, Human LPL (lipoprotein lipase); assay: cell-based or functional assay
Bovine LPL = target: T2, Bovine LPL; assay: native gel or EMSA; native PAGE of purified GPIHBP1 charge variants with hLPL, bLPL or mLPL (supplemental Fig. S1); settings: both partners purified

Molecule	preserving bLPL activity against spontaneous inactivation (bLPL)	competitive displacement of HSPG-bound hLPL (in words) [1]	reduction in hLPL levels on the heparan sulfate sensor surface after GPIHBP1 injections (12.5–200 nM), SPR [2] [%]	binding result (Bovine LPL)
GPIHBP1^1–33: Synthetic peptide representing the N-terminal acidic tail of GPIHBP1, first 33 residues (QTQQEEEEEDEDHGPDDYDEEDEDEVEEEETNR; UniProt Q8IV16 21-53, looked up, fragment)	as efficient as 150 nM GPIHBP1^1–131	neither GPIHBP1^34–131 nor GPIHBP1^1–33 alone, or in combination, induced any detachment of LPL	–	–
sulfated GPIHBP1^1–33: GPIHBP1^1–33 peptide carrying a tyrosyl-sulfation (Tyr^18) (QTQQEEEEEDEDHGPDDY(sulfate)DEEDEDEVEEEETNR; UniProt Q8IV16 21-53, looked up, fragment)	–	not perturbed	–	–
B1	–	–	68.1	–
B2	–	–	34.8	binds
B3	–	–	1.2	binds
